In data set [1] the test system is Plasmodium berghei Merozoite Surface Protein 1, 42 kDa form (PbMSP1-42).
Data set [2] deals with Plasmodium berghei Apical Membrane Antigen 1 (PbAMA1).

The source of these data is patent publication US20070014817.

“Plasmodium berghei subtilisin-like protease SUB2 (PbSUB2), TrimycDuoXpress (TmDX) epitope-tagged, as expressed in WT-TmDX1 and SPA-TmDX1 recombinant parasites”: in data set [1], the ratio of HSP70-corrected PbMSP1-19 maturation product, SPA-TmDX1 (PbSUB2 over-expressing) versus WT-TmDX1 merozoite extracts, Western blot, 1.3 x 10^6 parasites (fold (ratio of corrected amounts)) was found to be 2.9; the ratio of HSP70-corrected PbMSP1-19 maturation product, SPA-TmDX1 (PbSUB2 over-expressing) versus WT-TmDX1 merozoite extracts, Western blot, 6.5 x 10^6 parasites (fold (ratio of corrected amounts)) was found to be 2.5; the ratio of HSP70-corrected PbMSP1-19 maturation product, SPA-TmDX1 (PbSUB2 over-expressing) versus WT-TmDX1 merozoite extracts, Western blot, 13 x 10^6 parasites (fold (ratio of corrected amounts)) amounted to 2.1. For the same substance, the ratio of HSP70-corrected PbAMA1-CT15 maturation product, SPA-TmDX1 (PbSUB2 over-expressing) versus WT-TmDX1 merozoite extracts, Western blot, 6.5 x 10^7 parasites (fold (ratio of corrected amounts)) in data set [2] worked out at 9.7.
